Reference: article PMC6497155 (ACS infectious diseases, 2018)

Tests used:
[1] = Storage stability and concentration limit of purified ClpP; format: physicochemical; conditions: purified protein in activity buffer
ClpX = conditions: 200 nM ClpP, 50 nM ClpX; relative to ClpX alone
ClpP2 = test: Proteolytic activity of ClpP2 with DTT; format: biochemical, C. difficile; conditions: varying concentrations of DTT; incubation times exceeding 48 h
[2] = Thermal stability of ClpP homotetradecamers; format: physicochemical

Molecule	Concentration reached without any sign of precipitation [1]	Rate reduction of ClpX ATP hydrolysis (ClpX)	Stimulation of ClpP2 proteolytic activity by DTT (ClpP2)	Concentration above which less stability is exhibited [1]	Tm ([2]; no ADEP, SYPRO Orange, activity buffer (25 mM HEPES, 100 mM KCl, 5 mM MgCl2, 1 mM DTT, 10% glycerol), 25 to 85 °C in 0.3 °C increments, triplicate, Boltzmann fit) [°C]	Effect of reduced conditions on thermal stability ([2]; reduced conditions)
ClpP1: recombinant C. difficile ClpP1 (YP_001089821.1), homotetradecamer, prepared from ΔEcClpP E. coli unless otherwise noted	~ 60 mg/mL	~ 18%	–	–	–	–
O[C@@H](CS)[C@@H](O)CS (racemic) [dithiothreitol (DTT), dithiothreitol]	–	–	failed to stimulate proteolytic activity	–	–	–
ClpP2: recombinant C. difficile ClpP2 (YP_001089868.1), homotetradecamer	–	~ 7%	–	exceeding 12.5 mg/mL	46.5	no significant effect on the thermal stability
